Among the data in article PMC4654411 are reduction of the FlnA co-immunoprecipitated with respect to FlnA-WT values, retold here.

This assay has as its target Full-length HA-tagged PTPN12 (human) (UniProt Q05209). Nature of the assay: co-IP; Hek293 cells co-transfected with HA-PTPN12 and GFP-tagged FlnAs; 500 µg lysate in NETF buffer, 6 µg anti-HA 2 h at 4 °C, protein A beads; immunoblot. Background: Immunoblotting shows a protein as a band on a membrane.

Where only a bound is given, the exact number is not on record here.

UniProt Q05209, sequence (Q05209 whole entry): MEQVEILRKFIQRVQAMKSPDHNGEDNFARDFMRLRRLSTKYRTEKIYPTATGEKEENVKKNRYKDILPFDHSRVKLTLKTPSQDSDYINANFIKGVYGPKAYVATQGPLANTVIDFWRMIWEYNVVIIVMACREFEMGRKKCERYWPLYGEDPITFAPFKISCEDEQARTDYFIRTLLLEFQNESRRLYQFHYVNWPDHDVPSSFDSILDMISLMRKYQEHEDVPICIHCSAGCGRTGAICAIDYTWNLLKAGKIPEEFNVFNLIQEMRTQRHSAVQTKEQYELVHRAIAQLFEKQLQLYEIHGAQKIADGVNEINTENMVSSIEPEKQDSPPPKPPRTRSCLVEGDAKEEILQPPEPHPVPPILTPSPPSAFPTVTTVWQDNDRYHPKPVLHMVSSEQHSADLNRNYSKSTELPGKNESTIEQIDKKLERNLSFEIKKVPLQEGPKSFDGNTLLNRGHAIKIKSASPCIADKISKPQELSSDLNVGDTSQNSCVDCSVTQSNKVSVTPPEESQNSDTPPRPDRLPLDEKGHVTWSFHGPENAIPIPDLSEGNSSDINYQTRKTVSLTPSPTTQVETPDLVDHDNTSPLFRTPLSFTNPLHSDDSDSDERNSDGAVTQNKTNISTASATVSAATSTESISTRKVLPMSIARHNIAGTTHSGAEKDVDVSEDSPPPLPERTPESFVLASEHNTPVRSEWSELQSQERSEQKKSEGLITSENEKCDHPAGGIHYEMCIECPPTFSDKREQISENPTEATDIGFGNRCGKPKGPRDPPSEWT

Take GFP-tagged-FlnA-P637Q, P21333 1-2647: the reduction of the FlnA co-immunoprecipitated with respect to FlnA-WT was above 60%.

On to GFP-tagged-FlnA-G288R, P21333 1-2647, for which the reduction of the FlnA co-immunoprecipitated with respect to FlnA-WT was above 60%.
